These results are taken from article doi:10.1101/2023.02.03.527086.

The experiment has as its target T1, interferon regulatory factor 3 (IRF3) (human (endogenous in AC16)), Q14653.
T1 chain: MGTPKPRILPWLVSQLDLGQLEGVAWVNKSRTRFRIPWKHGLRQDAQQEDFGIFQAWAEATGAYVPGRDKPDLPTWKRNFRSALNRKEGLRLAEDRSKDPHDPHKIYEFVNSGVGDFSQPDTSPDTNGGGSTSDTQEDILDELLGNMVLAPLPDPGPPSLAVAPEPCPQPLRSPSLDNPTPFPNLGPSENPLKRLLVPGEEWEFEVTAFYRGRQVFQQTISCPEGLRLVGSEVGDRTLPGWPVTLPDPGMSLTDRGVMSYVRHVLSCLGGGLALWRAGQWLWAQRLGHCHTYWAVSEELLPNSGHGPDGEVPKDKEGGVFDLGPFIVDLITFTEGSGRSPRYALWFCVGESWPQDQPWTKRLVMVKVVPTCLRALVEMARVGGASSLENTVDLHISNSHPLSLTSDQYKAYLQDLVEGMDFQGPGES
The experiment in a line: native gel or EMSA. Particulars: remark: other sources report otherwise.

B1: interferon regulatory factor 3 (IRF3), Q14653 1-427 (natural protein)
chain: T1 chain
What is called stoichiometry N is a count of units in the complex or per binding partner. B1 yielded a stoichiometry N of 2.
